Patent US6306273A, “Methods and compositions for conducting processes in microfluidic devices” (Aclara BioSciences, Inc., priority 1999, dated 2001)
Ends that are not written are not given here. * marks the point of attachment. FITC = O=C1OC2(c3ccc(O)cc3Oc3cc(O)ccc32)c2ccc(NC(=S)*)cc21

Assay: Separation of FITC labeled peptides in dynamically coated chip; charge from migration time relative to EOF
Format: physicochemical
Details: 0.05% ammonium guar; determined by migration time relative to EOF
Description: The coating procedure and the separation conditions were the same as described previously. The surface modifying polymer was 0.05% ammonium guar. Three FITC labeled peptides (obtained from AnaSpec, San Jose, Calif.), which differed by one charge from each other (FITC-KKAA, FITC-KKKA and FITC-KKKK), were separated and detected 0.5 cm from the injection point on the anodal side. […] FITC-KKKA and FITC-KKKK migrated electrophoretically against the EOF. The net charge of FITC-KKKK was greater than +1.

Row | Substance | net charge
1 | FITC-KKAA: FITC labeled peptide, SEQ ID NO:1, from AnaSpec ({FITC}-KKAA) | negatively charged
2 | FITC-KKKA: FITC labeled peptide, SEQ ID NO:2, from AnaSpec ({FITC}-KKKA) | positive charged
